The source of these data is article PMC10620216.

This experiment deals with anti-StrepTagII pentameric IgM with J-chain. Description: mass photometry; Refeyn OneMP, in PBS, measurement concentrations typically around 5–20 nM, recorded for 120 s; oligomeric state of the antibody in solution.

B1: anti-StrepTagII pentameric IgM with J-chain (antibody, V domains shown)
VH: EVQLEQSGPELVKPGASVKMSCKASGYTFTNYYMKWVKQSHGKSLEWIGDLNPNNGDTFYNQKFKGKATLTVDKSSNTAYMQLNSLTSEDSAVYYCARTGRYEENAMDYWGQGTSVTVSS
VL: ELVMTQSPASLAVSLGQRATISCRASESVDSYGKSFMHWYQLKPGQPPKLLIYRASNLESGVPARFSGSGSRTDFTLTIDPVEADDAATYYCQQNNEDPWTFGGGTKLEIK
As for B1, the percent (m/m) of IgM in pentameric configuration is 85 % (m/m) and the stoichiometry N amounted to 5.

By stoichiometry N is commonly meant a count of units in the complex or per binding partner.
